Test results reported in article PMC11786531.

Biological target: heparan sulfate proteoglycans
Experiment: SPR competition (HSPG with LF or LF mutant flowed over PEDV S protein immobilised on a CM5 chip)
Conditions: parent: est. 5.0; read off a plot

Lactoferrin (from UniProt P14632) P1641L
response: 69 RU

Lactoferrin (from UniProt P14632) P1963L
response: 69 RU

Lactoferrin (from UniProt P14632) G1607L
response: 3.5 RU
